# T1: FcγRIIa(R) (human, UniProt P12318 34-217)
# T1 construct: extracellular domain; allotype R131; also called 2aR
# T1 sequence: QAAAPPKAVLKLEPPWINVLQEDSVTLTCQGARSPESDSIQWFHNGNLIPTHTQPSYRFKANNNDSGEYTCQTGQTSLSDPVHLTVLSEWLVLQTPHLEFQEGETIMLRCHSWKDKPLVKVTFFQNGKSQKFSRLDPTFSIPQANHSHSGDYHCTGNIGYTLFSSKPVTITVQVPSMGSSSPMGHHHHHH
# T2: FcγRIIb (human, UniProt P31994 43-217)
# T2 construct: extracellular domain; also called 2b
# T2 sequence: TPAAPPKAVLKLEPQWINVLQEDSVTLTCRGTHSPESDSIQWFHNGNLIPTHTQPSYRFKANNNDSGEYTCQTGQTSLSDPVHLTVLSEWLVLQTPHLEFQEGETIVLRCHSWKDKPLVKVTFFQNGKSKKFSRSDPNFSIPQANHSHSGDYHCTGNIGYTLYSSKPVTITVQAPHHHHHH
# T3: FcγRIIa(H) (human, UniProt P12318 34-217)
# T3 construct: extracellular domain; allotype H131; also called 2aH
# T3 sequence: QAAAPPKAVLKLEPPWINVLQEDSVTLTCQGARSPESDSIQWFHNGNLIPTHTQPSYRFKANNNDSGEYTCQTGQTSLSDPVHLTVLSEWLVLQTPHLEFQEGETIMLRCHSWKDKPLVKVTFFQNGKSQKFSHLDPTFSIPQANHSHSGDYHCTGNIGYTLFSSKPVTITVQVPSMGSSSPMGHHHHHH
# How the values were obtained:
# [1] = biological target: T4, FcγRIa (human, UniProt P12314 16-292); assay: SPR (Biacore), antibody captured on chip, FcγR as analyte; relative to GpH7-A5/GpH7-B3/GpL16-k0 = 100
# T4 construct: extracellular domain; also called 1a
# [2] = biological target: T1, FcγRIIa(R); assay: as above
# [3] = biological target: T5, FcγRIIIa (human, UniProt P08637 17-208); assay: as above
# T5 construct: extracellular domain; also called 3a
# [4] = biological target: T2, FcγRIIb; assay: as above
# [5] = biological target: T3, FcγRIIa(H); assay: as above
# [6] = biological target: T6, FcγRIIIa extracellular domain with C-terminal His tag (allotype not given) (human, UniProt P08637 17-208); assay: SPR (Biacore), captured antibody, FcγRIIIa analyte; binding relative to GpH7-A5/GpH7-B3/GpL16-k0 = 100
# T6 construct: extracellular domain; also called 3a
# [7] = biological target: T7, FcγRIIIaV (human, UniProt P08637 17-208); assay: SPR (Biacore), antibody captured, FcγR as analyte, 1:1 Langmuir fit
# T7 construct: extracellular domain
# T7 sequence (P08637 other isoform, or with tags, fused parts or gaps): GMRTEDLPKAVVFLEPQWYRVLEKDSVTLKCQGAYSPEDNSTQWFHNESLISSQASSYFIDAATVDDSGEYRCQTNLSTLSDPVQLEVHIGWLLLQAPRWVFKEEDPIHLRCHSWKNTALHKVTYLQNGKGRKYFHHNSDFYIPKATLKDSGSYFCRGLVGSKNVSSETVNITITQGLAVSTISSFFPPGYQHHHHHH
# Method: The antibody of interest was analyzed for its interaction with FcγR using a BiaCore™ T100, BiaCore™ A100, or BiaCore™ 4000 surface plasmon resonance system (GE Healthcare Japan Corp.). The running buffer used was HBS-EP+ (GE Healthcare Japan Corp.). The assay temperature was set to 25° C. The sensor chips used were: a chip prepared by immobilizing antigenic peptides onto Series S Sensor Chip CM5 (GE Healthcare Japan Corp.) by the amine coupling method; a chip prepared by immobilizing antigenic peptides biotinylated in advance onto Series S Sensor Chip SA (certified) (GE Healthcare Japan Corp.) through their interaction; a chip prepared by immobilizing protein L (ACTIGEN, BioVision, Inc.) onto Series S Sensor Chip CM5 (GE Healthcare Japan Corp.); and a chip prepared by immobilizing protein A/G (Thermo Fisher Scientific K.K.) onto Series S Sensor Chip CM5 (GE Healthcare Japan Corp.). The antibody of interest was captured onto any of these chips and allowed to interact with FcγR diluted with a running buffer. The antibody captured on the chip was washed off through the reaction of 10 mM glycine-HCl (pH 1.5) to regenerate the chip, which was repetitively used.
# T4 sequence (P12314 other isoform, or with tags, fused parts or gaps): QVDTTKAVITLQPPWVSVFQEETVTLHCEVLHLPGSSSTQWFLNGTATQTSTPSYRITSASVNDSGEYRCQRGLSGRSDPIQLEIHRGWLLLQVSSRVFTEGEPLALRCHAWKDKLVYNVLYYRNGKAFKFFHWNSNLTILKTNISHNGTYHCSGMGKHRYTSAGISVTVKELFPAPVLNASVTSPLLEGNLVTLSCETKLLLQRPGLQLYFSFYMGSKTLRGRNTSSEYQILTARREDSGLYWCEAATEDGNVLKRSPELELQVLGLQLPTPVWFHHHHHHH
# T5 sequence (P08637 other isoform, or with tags, fused parts or gaps): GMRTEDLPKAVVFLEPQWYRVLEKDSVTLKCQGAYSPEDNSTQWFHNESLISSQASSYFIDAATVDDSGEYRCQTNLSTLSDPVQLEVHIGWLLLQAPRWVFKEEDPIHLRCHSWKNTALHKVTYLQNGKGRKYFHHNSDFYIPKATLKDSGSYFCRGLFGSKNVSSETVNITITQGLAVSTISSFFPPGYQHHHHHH
He/Con 1a (binding activity relative to GpH7-A5/GpH7-B3/GpL16-k0 x 100) [1],He/Con 2aR (binding activity relative to GpH7-A5/GpH7-B3/GpL16-k0 x 100) [2],He/Con 3a (binding activity relative to GpH7-A5/GpH7-B3/GpL16-k0 x 100) [3],He/Con 2b (binding activity relative to GpH7-A5/GpH7-B3/GpL16-k0 x 100) [4],He/Con 2aH (binding activity relative to GpH7-A5/GpH7-B3/GpL16-k0 x 100) [5],He/Con 3a [6],Kd [7],Binder
102 % of control,109 % of control,90.2 % of control,109 % of control,106 % of control,–,–,"GpH7-A5/GpH7-B3 variant S337_08L/GpL16-k0 (antibody, human IgG1, kappa, Heterodimerized anti-glypican 3 IgG1 antibody with the mutation in only one H chain (GpH7-B3 side); also called He Ab) heavy 1: not shown heavy 2: not shown light: DIVMTQSPLSLPVTPGEPASISCQASESLVHSNRNTYLHWYLQKPGQSPQLLIYKVSNRFSGVPDRFSGSGSGTDFTLKISRVEAEDVGVYYCSQNTHVPPTFGQGTKVEIERTVAAPSVFIFPPSDEQLKSGTASVVCLLNNFYPREAKVQWKVDNALQSGNSQESVTEQDSKDSTYSLSSTLTLSKADYEKHKVYACEVTHQGLSSPVTKSFNRGEC"
101 % of control,108 % of control,91.2 % of control,109 % of control,104 % of control,–,–,"GpH7-A5/GpH7-B3 variant S337_19Q/GpL16-k0 (antibody, human IgG1, kappa, Heterodimerized anti-glypican 3 IgG1 antibody with the mutation in only one H chain (GpH7-B3 side); also called He Ab) heavy 1: not shown heavy 2: not shown light: DIVMTQSPLSLPVTPGEPASISCQASESLVHSNRNTYLHWYLQKPGQSPQLLIYKVSNRFSGVPDRFSGSGSGTDFTLKISRVEAEDVGVYYCSQNTHVPPTFGQGTKVEIERTVAAPSVFIFPPSDEQLKSGTASVVCLLNNFYPREAKVQWKVDNALQSGNSQESVTEQDSKDSTYSLSSTLTLSKADYEKHKVYACEVTHQGLSSPVTKSFNRGEC"
101 % of control,107 % of control,94.9 % of control,109 % of control,106 % of control,–,–,"GpH7-A5/GpH7-B3 variant S337_15Y/GpL16-k0 (antibody, human IgG1, kappa, Heterodimerized anti-glypican 3 IgG1 antibody with the mutation in only one H chain (GpH7-B3 side); also called He Ab) heavy 1: not shown heavy 2: not shown light: DIVMTQSPLSLPVTPGEPASISCQASESLVHSNRNTYLHWYLQKPGQSPQLLIYKVSNRFSGVPDRFSGSGSGTDFTLKISRVEAEDVGVYYCSQNTHVPPTFGQGTKVEIERTVAAPSVFIFPPSDEQLKSGTASVVCLLNNFYPREAKVQWKVDNALQSGNSQESVTEQDSKDSTYSLSSTLTLSKADYEKHKVYACEVTHQGLSSPVTKSFNRGEC"
102 % of control,112 % of control,93.8 % of control,119 % of control,108 % of control,–,–,"GpH7-A5/GpH7-B3 variant S337_20W/GpL16-k0 (antibody, human IgG1, kappa, Heterodimerized anti-glypican 3 IgG1 antibody with the mutation in only one H chain (GpH7-B3 side); also called He Ab) heavy 1: not shown heavy 2: not shown light: DIVMTQSPLSLPVTPGEPASISCQASESLVHSNRNTYLHWYLQKPGQSPQLLIYKVSNRFSGVPDRFSGSGSGTDFTLKISRVEAEDVGVYYCSQNTHVPPTFGQGTKVEIERTVAAPSVFIFPPSDEQLKSGTASVVCLLNNFYPREAKVQWKVDNALQSGNSQESVTEQDSKDSTYSLSSTLTLSKADYEKHKVYACEVTHQGLSSPVTKSFNRGEC"
102 % of control,111 % of control,88.3 % of control,113 % of control,107 % of control,–,–,"GpH7-A5/GpH7-B3 variant S337_07I/GpL16-k0 (antibody, human IgG1, kappa, Heterodimerized anti-glypican 3 IgG1 antibody with the mutation in only one H chain (GpH7-B3 side); also called He Ab) heavy 1: not shown heavy 2: not shown light: DIVMTQSPLSLPVTPGEPASISCQASESLVHSNRNTYLHWYLQKPGQSPQLLIYKVSNRFSGVPDRFSGSGSGTDFTLKISRVEAEDVGVYYCSQNTHVPPTFGQGTKVEIERTVAAPSVFIFPPSDEQLKSGTASVVCLLNNFYPREAKVQWKVDNALQSGNSQESVTEQDSKDSTYSLSSTLTLSKADYEKHKVYACEVTHQGLSSPVTKSFNRGEC"
–,–,–,–,–,88.3%,–,"GpH7-A5/GpH7-B3 variant S337_07I/GpL16-k0 (antibody, human IgG1, kappa, heterodimerized anti-glypican 3 IgG1; mutation in one H chain only; also called He Ab) heavy 1: not shown heavy 2: not shown light: DIVMTQSPLSLPVTPGEPASISCQASESLVHSNRNTYLHWYLQKPGQSPQLLIYKVSNRFSGVPDRFSGSGSGTDFTLKISRVEAEDVGVYYCSQNTHVPPTFGQGTKVEIERTVAAPSVFIFPPSDEQLKSGTASVVCLLNNFYPREAKVQWKVDNALQSGNSQESVTEQDSKDSTYSLSSTLTLSKADYEKHKVYACEVTHQGLSSPVTKSFNRGEC"
101 % of control,111 % of control,100 % of control,114 % of control,108 % of control,–,–,"GpH7-A5/GpH7-B3 variant S337_16H/GpL16-k0 (antibody, human IgG1, kappa, Heterodimerized anti-glypican 3 IgG1 antibody with the mutation in only one H chain (GpH7-B3 side); also called He Ab) heavy 1: not shown heavy 2: not shown light: DIVMTQSPLSLPVTPGEPASISCQASESLVHSNRNTYLHWYLQKPGQSPQLLIYKVSNRFSGVPDRFSGSGSGTDFTLKISRVEAEDVGVYYCSQNTHVPPTFGQGTKVEIERTVAAPSVFIFPPSDEQLKSGTASVVCLLNNFYPREAKVQWKVDNALQSGNSQESVTEQDSKDSTYSLSSTLTLSKADYEKHKVYACEVTHQGLSSPVTKSFNRGEC"
101 % of control,105 % of control,80.1 % of control,103 % of control,102 % of control,–,–,"GpH7-A5/GpH7-B3 variant S337_11K/GpL16-k0 (antibody, human IgG1, kappa, Heterodimerized anti-glypican 3 IgG1 antibody with the mutation in only one H chain (GpH7-B3 side); also called He Ab) heavy 1: not shown heavy 2: not shown light: DIVMTQSPLSLPVTPGEPASISCQASESLVHSNRNTYLHWYLQKPGQSPQLLIYKVSNRFSGVPDRFSGSGSGTDFTLKISRVEAEDVGVYYCSQNTHVPPTFGQGTKVEIERTVAAPSVFIFPPSDEQLKSGTASVVCLLNNFYPREAKVQWKVDNALQSGNSQESVTEQDSKDSTYSLSSTLTLSKADYEKHKVYACEVTHQGLSSPVTKSFNRGEC"
102 % of control,112 % of control,94 % of control,114 % of control,110 % of control,–,–,"GpH7-A5/GpH7-B3 variant S337_14T/GpL16-k0 (antibody, human IgG1, kappa, Heterodimerized anti-glypican 3 IgG1 antibody with the mutation in only one H chain (GpH7-B3 side); also called He Ab) heavy 1: not shown heavy 2: not shown light: DIVMTQSPLSLPVTPGEPASISCQASESLVHSNRNTYLHWYLQKPGQSPQLLIYKVSNRFSGVPDRFSGSGSGTDFTLKISRVEAEDVGVYYCSQNTHVPPTFGQGTKVEIERTVAAPSVFIFPPSDEQLKSGTASVVCLLNNFYPREAKVQWKVDNALQSGNSQESVTEQDSKDSTYSLSSTLTLSKADYEKHKVYACEVTHQGLSSPVTKSFNRGEC"
–,–,–,–,–,90.2%,–,"GpH7-A5/GpH7-B3 variant S337_08L/GpL16-k0 (antibody, human IgG1, kappa, heterodimerized anti-glypican 3 IgG1; mutation in one H chain only; also called He Ab) heavy 1: not shown heavy 2: not shown light: DIVMTQSPLSLPVTPGEPASISCQASESLVHSNRNTYLHWYLQKPGQSPQLLIYKVSNRFSGVPDRFSGSGSGTDFTLKISRVEAEDVGVYYCSQNTHVPPTFGQGTKVEIERTVAAPSVFIFPPSDEQLKSGTASVVCLLNNFYPREAKVQWKVDNALQSGNSQESVTEQDSKDSTYSLSSTLTLSKADYEKHKVYACEVTHQGLSSPVTKSFNRGEC"
–,–,–,–,–,–,1.7 nM,"Kn125-L4-9 (antibody, human IgG1, kappa, heterodimerized anti-EREG antibody: altered H240-Kn125 chain (Gly/Ser peptide in loop) with H240-Hl076 and L73-k0) heavy 1: QDQLVQSGAEVKKPGASVKVSCKASGFNIKDTYIQWVRQAPGQGLEWMGRIDPLRKQTKYREKFEGRVTITADTSTNTAYMELSSLRSEDTAVYYCVRSGREFDYWGQGTLVTVSSASTKGPSVFPLAPSSKSTSGGTAALGCLVKDYFPEPVTVSWNSGALTSGVHTFPAVLQSSGLYSLSSVVTVPSSSLGTQTYICNVNHKPSNTKVDKKVEPKSCDKTHTCPPCPAPELLGGPSVFLFPPKPKDTLMISRTPEVTCVVVDVSHEEPEVKFNWYVDGVEVHNAKTKPREEQYNSTYRVVSVLTVLHQDWLNGKEYKCKVSNDALPMPIEETISKAKGQPREPQVYTLPPSRCELTKNQVSLSCAVKGFYPSDIAVEWESNGQPENNYKTTPPVLDSDGSFFLVSKLTVDKSRWQQGNVFSCSVMHEALHNHYTQKSLSLSP heavy 2: QDQLVQSGAEVKKPGASVKVSCKASGFNIKDTYIQWVRQAPGQGLEWMGRIDPLRKQTKYREKFEGRVTITADTSTNTAYMELSSLRSEDTAVYYCVRSGREFDYWGQGTLVTVSSASTKGPSVFPLAPSSKSTSGGTAALGCLVKDYFPEPVTVSWNSGALTSGVHTFPAVLQSSGLYSLSSVVTVPSSSLGTQTYICNVNHKPSNTKVDKKVEPKSCDKTHTCPPCPAPEYQWGPMVFLFPPKPKDTLMISRTPEVTCVVVDVSDEEPEVKFNWYVDGVEVHNAKTKPREEQYNATYRVVSVLTVLHQDWLNGKEYKCKVSNKGGSGGSGGSALPAPIEKTISKAKGQPREPQVCTLPPSRDELTKNQVSLWCLVKGFYPSDIAVEWESNGQPENNYKTTPPVLDSDGSFFLYSKLTVDKSRWQQGNVFSCSVMHEALHNHYTQKSLSLSP light: DIQMTQSPSSLSASVGDRVTITCRASQDIHKYIAWYQQKPGQAPRLLIQYTSTLQPGVPSRFSGSGSGTDYTFTISSLQPEDIATYYCLQYEQLRTFGGGTKVEIKRTVAAPSVFIFPPSDEQLKSGTASVVCLLNNFYPREAKVQWKVDNALQSGNSQESVTEQDSKDSTYSLSSTLTLSKADYEKHKVYACEVTHQGLSSPVTKSFNRGEC"

# — patent publication US20260167699A1 (Chugai, published 2026)
